Measurements from patent US20050042213.

Assays:
Z-Arg-Arg-AMC = tested on: T1, Z-Arg-Arg-AMC
T1 sequence: RR

[1] = tested on: T2, pro-heparanase (H60), purified recombinant human 60 kDa latent heparanase
T2 sequence: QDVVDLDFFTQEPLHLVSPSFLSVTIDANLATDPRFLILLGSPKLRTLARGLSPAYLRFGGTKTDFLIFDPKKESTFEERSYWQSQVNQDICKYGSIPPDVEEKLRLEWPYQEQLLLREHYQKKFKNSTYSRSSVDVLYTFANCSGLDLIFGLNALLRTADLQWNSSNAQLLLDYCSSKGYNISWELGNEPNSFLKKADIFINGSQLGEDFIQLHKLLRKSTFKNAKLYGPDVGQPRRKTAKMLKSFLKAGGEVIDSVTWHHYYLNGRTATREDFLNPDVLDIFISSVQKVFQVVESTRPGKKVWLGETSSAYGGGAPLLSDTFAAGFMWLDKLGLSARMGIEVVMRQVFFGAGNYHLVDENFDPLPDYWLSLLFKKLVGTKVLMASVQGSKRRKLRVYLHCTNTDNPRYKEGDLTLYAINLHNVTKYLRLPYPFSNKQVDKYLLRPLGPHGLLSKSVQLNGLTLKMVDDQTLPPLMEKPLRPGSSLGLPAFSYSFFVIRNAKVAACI

[2] = tested on: T3, Z-Pro-Lys-Lys-Glu-AMC (Peptide 1)
T3 sequence: PKKE

Cathepsin B
Activity (δfluorescence) (δfluorescence) (Z-Arg-Arg-AMC): 53300 | heparanase activity after treatment (DMB assay) [1]: Cathepsin B did not activate the pro-heparanase | processing of pro-heparanase in vitro (Western blot) [1]: Cathepsin B in the presence of heparin but not when the cathepsin B inhibitor CA074 was added, also processed the pro-heparanase | Activity (δfluorescence) (δfluorescence) [2]: 8930

Cathepsin D
heparanase activity after treatment (DMB assay) [1]: Cathepsin D treatment caused an increase in heparanase activity and pepstatin A inhibited this activation | processing of pro-heparanase in vitro (Western blot) [1]: When heparin was included in the reaction mixture, heparanase was processed by cathepsin D and a 45 kDa polypeptide was detected

Cathepsin L
Activity (δfluorescence) (δfluorescence) [2]: 0
